{"source": "patent US20240041976A1", "about": "“COMPOSITION AND USE” (priority 2020, published 2024)", "molecules": {"B1": {"name": "Garvicin KS: three-peptide leaderless bacteriocin (GarA, GarB, GarC; SEQ ID NO:6-8), peptides synthesized (peptide, listed as Lactococcus garvieae)", "chain 1": "MGAIIKAGAKIVGKGVLGGGASWLGWNVGEKIWK", "chain 2": "MGAIIKAGAKIIGKGLLGGAAGGATYGGLKKIFG", "chain 3": "MGAIIKAGAKIVGKGALTGGGVWLAEKLFGGK"}}, "test_in_all_cases": "microbe, parasite or virus in culture", "key": {"[1]": {"test_system": "S. haemolyticus 4072", "conditions": "4072; for MIC: individual component", "procedure": "(§1) Growth inhibition assays were performed in 96-well microtiter plates as described previously (Chi and Holo, 2018, supra). Briefly, 135 μl of TSB were dispensed in each well of a microtiter plate (according to the number of bacterial strains tested) except in the wells of the first row. The antimicrobials were diluted in TSB to working concentrations in a final volume of 285 μl and dispensed in the wells of the first row. The working concentrations were 100 μg/μl for garvicin KS, 10 μg/μl for micrococcin P1 and 1 mg/ml for penicillin G. From the first row, 150 μl of the antimicrobials were then serially diluted (two-fold dilutions) in a sequential fashion until the last row of the plate. Finally, 15 μl of a fresh O/N culture of each strain were added in the appropriate wells to reach a final volume of 150 μl in each well. The plates were then incubated at 37° C. for 24 h. The growth inhibition was expressed as minimum inhibitory concentration (MIC50), which refers to the minimum concentration of the antimicrobial needed to reduce at least 50% of the microbial growth compared to the untreated control. The MIC50 was assessed by optical density readings at 600 nm (O.D.600).\n(§2) Synergistic interactions between antimicrobials were determined using the fractional inhibition concentration (FIC). The FIC values were calculated as follows: the sum of the FIC =FICa+FICb+FICc, where the FICa means MIC of A in combination/MIC of A alone, FICb means MIC of B in combination/MIC of B, and FICc means MIC of C in combination/MIC of C alone. Effects were considered as synergistic if FIC was ≤0.5 for two components mixture and ≤0.75 for three components mixture.\n(§3) Bacteriocins and antimicrobial assays. […] These bacteriocins were all solubilized in 0.1% (vol/vol) trifluoracetic acid (TFA; Sigma-Aldrich). […] Cell growth inhibition assays and antimicrobial synergy determination was performed in line with Example 1.\n(§4) To investigate whether there was synergy between the three bacteriocins (K1-EJ, GarKS and MP1), a checkboard antimicrobial assay was performed. The selected strains were treated for 5, 24 and 48 h with a range of concentrations of K1-EJ, GarKS and MP1 alone or in different combinations."}, "[2]": {"test_system": "S. haemolyticus 4073", "conditions": "4073; for MIC: individual component", "procedure": "as §1, §2, §3, §4"}, "[3]": {"test_system": "S. haemolyticus 4068", "conditions": "4068; for MIC: individual component", "procedure": "as §1, §2, §3, §4"}, "[4]": {"test_system": "S. haemolyticus 4071", "conditions": "4071; for MIC: individual component", "procedure": "as §1, §2, §3, §4"}, "[5]": {"test_system": "S. haemolyticus 4069", "conditions": "4069; for MIC: individual component", "procedure": "as §1, §2, §3, §4"}}, "data": [{"molecule": "B1", "values": [{"measurement": "MIC of the component in combination", "setting": "[1]; 5 h, GarKS + MP1", "result": 0.73, "unit": "µg/mL"}, {"measurement": "MIC of the component in combination", "setting": "[1]; 5 h, K1-EJ + GarKS", "result": 1.5, "unit": "µg/mL"}, {"measurement": "MIC of the component in combination", "setting": "[1]; 5 h, K1-EJ + GarKS + MP1", "result": 0.68, "unit": "µg/mL"}, {"measurement": "MIC", "setting": "[1]; 5 h", "result": 23.6, "unit": "µg/mL"}, {"measurement": "MIC of the component in combination", "setting": "[1]; 24 h, GarKS + MP1", "result": 1.6, "unit": "µg/mL"}, {"measurement": "MIC of the component in combination", "setting": "[1]; 24 h, K1-EJ + GarKS", "result": 12, "unit": "µg/mL"}, {"measurement": "MIC of the component in combination", "setting": "[1]; 24 h, K1-EJ + GarKS + MP1", "result": 1.6, "unit": "µg/mL"}, {"measurement": "MIC", "setting": "[1]; 24 h", "result": 49, "unit": "µg/mL"}, {"measurement": "MIC of the component in combination", "setting": "[1]; 48 h, GarKS + MP1", "result": 3.1, "unit": "µg/mL"}, {"measurement": "MIC of the component in combination", "setting": "[1]; 48 h, K1-EJ + GarKS", "result": 13, "unit": "µg/mL"}, {"measurement": "MIC of the component in combination", "setting": "[1]; 48 h, K1-EJ + GarKS + MP1", "result": 5.8, "unit": "µg/mL"}, {"measurement": "MIC", "setting": "[1]; 48 h", "result": 52, "unit": "µg/mL"}, {"measurement": "MIC of the component in combination", "setting": "[2]; 5 h, GarKS + MP1", "result": 0.2, "unit": "µg/mL"}, {"measurement": "MIC of the component in combination", "setting": "[2]; 5 h, K1-EJ + GarKS", "result": 1.7, "unit": "µg/mL"}, {"measurement": "MIC of the component in combination", "setting": "[2]; 5 h, K1-EJ + GarKS + MP1", "result": 0.33, "unit": "µg/mL"}, {"measurement": "MIC", "setting": "[2]; 5 h", "result": 12.5, "unit": "µg/mL"}, {"measurement": "MIC of the component in combination", "setting": "[2]; 24 h, GarKS + MP1", "result": 0.73, "unit": "µg/mL"}, {"measurement": "MIC of the component in combination", "setting": "[2]; 24 h, K1-EJ + GarKS", "result": 6.3, "unit": "µg/mL"}, {"measurement": "MIC of the component in combination", "setting": "[2]; 24 h, K1-EJ + GarKS + MP1", "result": 0.78, "unit": "µg/mL"}, {"measurement": "MIC", "setting": "[2]; 24 h", "result": 51, "unit": "µg/mL"}, {"measurement": "MIC of the component in combination", "setting": "[2]; 48 h, GarKS + MP1", "result": 0.83, "unit": "µg/mL"}, {"measurement": "MIC of the component in combination", "setting": "[2]; 48 h, K1-EJ + GarKS", "result": 12, "unit": "µg/mL"}, {"measurement": "MIC of the component in combination", "setting": "[2]; 48 h, K1-EJ + GarKS + MP1", "result": 1.6, "unit": "µg/mL"}, {"measurement": "MIC", "setting": "[2]; 48 h", "result": 51, "unit": "µg/mL"}, {"measurement": "MIC of the component in combination", "setting": "[3]; 5 h, GarKS + MP1", "result": 0.2, "unit": "µg/mL"}, {"measurement": "MIC of the component in combination", "setting": "[3]; 5 h, K1-EJ + GarKS", "result": 0.83, "unit": "µg/mL"}, {"measurement": "MIC of the component in combination", "setting": "[3]; 5 h, K1-EJ + GarKS + MP1", "result": 0.32, "unit": "µg/mL"}, {"measurement": "MIC", "setting": "[3]; 5 h", "result": 6.5, "unit": "µg/mL"}, {"measurement": "MIC of the component in combination", "setting": "[3]; 24 h, GarKS + MP1", "result": 0.32, "unit": "µg/mL"}, {"measurement": "MIC of the component in combination", "setting": "[3]; 24 h, K1-EJ + GarKS", "result": 3.1, "unit": "µg/mL"}, {"measurement": "MIC of the component in combination", "setting": "[3]; 24 h, K1-EJ + GarKS + MP1", "result": 0.78, "unit": "µg/mL"}, {"measurement": "MIC", "setting": "[3]; 24 h", "result": 24, "unit": "µg/mL"}, {"measurement": "MIC of the component in combination", "setting": "[3]; 48 h, GarKS + MP1", "result": 0.68, "unit": "µg/mL"}, {"measurement": "MIC of the component in combination", "setting": "[3]; 48 h, K1-EJ + GarKS", "result": 6, "unit": "µg/mL"}, {"measurement": "MIC of the component in combination", "setting": "[3]; 48 h, K1-EJ + GarKS + MP1", "result": 2.8, "unit": "µg/mL"}, {"measurement": "MIC", "setting": "[3]; 48 h", "result": 25, "unit": "µg/mL"}, {"measurement": "MIC of the component in combination", "setting": "[4]; 5 h, GarKS + MP1", "result": 0.68, "unit": "µg/mL"}, {"measurement": "MIC of the component in combination", "setting": "[4]; 5 h, K1-EJ + GarKS", "result": 1.6, "unit": "µg/mL"}, {"measurement": "MIC of the component in combination", "setting": "[4]; 5 h, K1-EJ + GarKS + MP1", "result": 0.72, "unit": "µg/mL"}, {"measurement": "MIC", "setting": "[4]; 5 h", "result": 12.5, "unit": "µg/mL"}, {"measurement": "MIC of the component in combination", "setting": "[4]; 24 h, GarKS + MP1", "result": 6.3, "unit": "µg/mL"}, {"measurement": "MIC of the component in combination", "setting": "[4]; 24 h, K1-EJ + GarKS", "result": 12, "unit": "µg/mL"}, {"measurement": "MIC of the component in combination", "setting": "[4]; 24 h, K1-EJ + GarKS + MP1", "result": 1.6, "unit": "µg/mL"}, {"measurement": "MIC", "setting": "[4]; 24 h", "result": 51, "unit": "µg/mL"}, {"measurement": "MIC of the component in combination", "setting": "[4]; 48 h, GarKS + MP1", "result": 6.5, "unit": "µg/mL"}, {"measurement": "MIC of the component in combination", "setting": "[4]; 48 h, K1-EJ + GarKS", "result": 24, "unit": "µg/mL"}, {"measurement": "MIC of the component in combination", "setting": "[4]; 48 h, K1-EJ + GarKS + MP1", "result": 3.3, "unit": "µg/mL"}, {"measurement": "MIC", "setting": "[4]; 48 h", "result": 100, "unit": "µg/mL"}, {"measurement": "MIC of the component in combination", "setting": "[5]; 5 h, GarKS + MP1", "result": 1.6, "unit": "µg/mL"}, {"measurement": "MIC of the component in combination", "setting": "[5]; 5 h, K1-EJ + GarKS", "result": 1.4, "unit": "µg/mL"}, {"measurement": "MIC of the component in combination", "setting": "[5]; 5 h, K1-EJ + GarKS + MP1", "result": 0.68, "unit": "µg/mL"}, {"measurement": "MIC", "setting": "[5]; 5 h", "result": 3.3, "unit": "µg/mL"}, {"measurement": "MIC of the component in combination", "setting": "[5]; 24 h, GarKS + MP1", "result": 25, "unit": "µg/mL"}, {"measurement": "MIC of the component in combination", "setting": "[5]; 24 h, K1-EJ + GarKS", "result": 6, "unit": "µg/mL"}, {"measurement": "MIC of the component in combination", "setting": "[5]; 24 h, K1-EJ + GarKS + MP1", "result": 3.3, "unit": "µg/mL"}, {"measurement": "MIC", "setting": "[5]; 24 h", "result": 13, "unit": "µg/mL"}, {"measurement": "MIC of the component in combination", "setting": "[5]; 48 h, GarKS + MP1", "result": 50, "unit": "µg/mL"}, {"measurement": "MIC of the component in combination", "setting": "[5]; 48 h, K1-EJ + GarKS", "result": 6.5, "unit": "µg/mL"}, {"measurement": "MIC of the component in combination", "setting": "[5]; 48 h, K1-EJ + GarKS + MP1", "result": 5.8, "unit": "µg/mL"}, {"measurement": "MIC", "setting": "[5]; 48 h", "result": 26, "unit": "µg/mL"}]}]}
